We go through two proteins from patent US20100068742.

Data set [1] concerns the target LRRKtide with -2Tyr mutated to Arg.
In data set [2] the target is LRRKtide with +1Leu mutated to Ala.
Data set [3] has as its target T1, chicken maltose binding protein-MYPT (amino acids 714-1004), Q90623.
T1 chain: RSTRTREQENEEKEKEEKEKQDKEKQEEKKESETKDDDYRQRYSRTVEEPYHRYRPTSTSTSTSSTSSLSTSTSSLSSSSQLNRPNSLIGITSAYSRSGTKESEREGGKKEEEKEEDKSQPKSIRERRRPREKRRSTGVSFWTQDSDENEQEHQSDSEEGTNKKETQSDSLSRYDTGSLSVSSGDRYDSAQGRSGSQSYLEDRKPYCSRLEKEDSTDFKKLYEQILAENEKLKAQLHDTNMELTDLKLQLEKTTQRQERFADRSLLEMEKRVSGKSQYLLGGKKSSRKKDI

Data set [4] addresses GST-ezrin (amino acids 1-586), P15311.
The target of data set [5] is T2, Nictide (RLGWWRFYTLRRARQGNTKQR).
T2 chain: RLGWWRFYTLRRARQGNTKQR

Sequence of GST-ezrin (amino acids 1-586), P15311 (P15311 whole entry, the tested form may be a part): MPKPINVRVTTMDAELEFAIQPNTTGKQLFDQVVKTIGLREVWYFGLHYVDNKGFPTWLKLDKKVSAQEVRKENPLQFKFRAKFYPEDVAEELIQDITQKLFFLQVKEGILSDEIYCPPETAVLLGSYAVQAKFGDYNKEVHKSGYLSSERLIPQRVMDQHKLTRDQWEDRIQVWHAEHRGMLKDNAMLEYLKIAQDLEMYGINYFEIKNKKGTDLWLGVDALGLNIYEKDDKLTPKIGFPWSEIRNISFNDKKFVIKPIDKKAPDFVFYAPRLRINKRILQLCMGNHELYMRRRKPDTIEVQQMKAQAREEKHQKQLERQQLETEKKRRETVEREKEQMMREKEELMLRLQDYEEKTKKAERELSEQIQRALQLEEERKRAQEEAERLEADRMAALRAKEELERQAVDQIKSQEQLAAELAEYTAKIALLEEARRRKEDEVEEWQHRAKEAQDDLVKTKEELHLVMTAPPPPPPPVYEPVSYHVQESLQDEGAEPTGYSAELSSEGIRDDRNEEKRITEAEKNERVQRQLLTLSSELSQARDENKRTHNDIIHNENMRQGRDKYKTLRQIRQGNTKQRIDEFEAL

B1: rat ROCK2 (amino acids 2-543) (protein)
chain: SRPPPTGKMPGAPEAAAGDGAGAGRQRKLEALIRDPRSPINVESLLDGLNSLVLDLDFPALRKNKNIDNFLNRYEKIVKKIRGLQMKAEDYDVVKVIGRGAFGEVQLVRHKASQKVYAMKLLSKFEMIKRSDSAFFWEERDIMAFANSPWVVQLFCAFQDDRYLYMVMEYMPGGDLVNLMSNYDVPEKWAKFYTAEVVLALDAIHSMGLIHRDVKPDNMLLDKHGHLKLADFGTCMKMDETGMVHCDTAVGTPDYISPEVLKSQGGDGYYGRECDWWSVGVFLFEMLVGDTPFYADSLVGTYSKIMDHKNSLCFPEDTEISKHAKNLICAFLTDREVRLGRNGVEEIKSASFFKNDQWNWDNIRETAAPVVPELSSDIDSSNFDDIEDDKGDVETFPIPKAFVGNQLPFIGFTYFRENLLLSDSPPCRENDAIQTRKSEESQEIQKKLYALEEHLSSEVQAKEELEQKCKSINTRLEKTAKELEEEITFRKNVESTLRQLEREKALLQHKNAEYQRKADHEADKKRNLENDVNSLKDQLEDL
On to B1, for which, in data set [1], the “fold decrease of Km against wild type LRRKtide” value is given as “decreased the Km value over 60-fold” and the “fold increase of Vmax against wild type LRRKtide” value is listed as “increased the Vmax over 5-fold”. Also, the peptide phosphorylation entry in data set [2] is reported as “abolished phosphorylation by ROCK2”. Besides, in data set [3], the “protein substrate phosphorylation (32P autoradiography)” value (“protein substrate phosphorylation” for short) is “ROCK2 phosphorylated MYPT”. In addition, the “protein substrate phosphorylation” value in data set [4] was “but barely ezrin”.

B2: GST-LRRK2 1326-2527 [wild type] (protein)
chain: LKKAVPYNRMKLMIVGNTGSGKTTLLQQLMKTKKSDLGMQSATVGIDVKDWPIQIRDKRKRDLVLNVWDFAGREEFYSTHPHFMTQRALYLAVYDLSKGQAEVDAMKPWLFNIKARASSSPVILVGTHLDVSDEKQRKACMSKITKELLNKRGFPAIRDYHFVNATEESDALAKLRKTIINESLNFKIRDQLVVGQLIPDCYVELEKIILSERKNVPIEFPVIDRKRLLQLVRENQLQLDENELPHAVHFLNESGVLLHFQDPALQLSDLYFVEPKWLCKIMAQILTVKVEGCPKHPKGIISRRDVEKFLSKKRKFPKNYMSQYFKLLEKFQIALPIGEEYLLVPSSLSDHRPVIELPHCENSEIIIRLYEMPYFPMGFWSRLINRLLEISPYMLSGRERALRPNRMYWRQGIYLNWSPEAYCLVGSEVLDNHPESFLKITVPSCRKGCILLGQVVDHIDSLMEEWFPGLLEIDICGEGETLLKKWALYSFNDGEEHQKILLDDLMKKAEEGDLLVNPDQPRLTIPISQIAPDLILADLPRNIMLNNDELEFEQAPEFLLGDGSFGSVYRAAYEGEEVAVKIFNKHTSLRLLRQELVVLCHLHHPSLISLLAAGIRPRMLVMELASKGSLDRLLQQDKASLTRTLQHRIALHVADGLRYLHSAMIIYRDLKPHNVLLFTLYPNAAIIAKIADYGIAQYCCRMGIKTSEGTPGFRAPEVARGNVIYNQQADVYSFGLLLYDILTTGGRIVEGLKFPNEFDELEIQGKLPDPVKEYGCAPWPMVEKLIKQCLKENPQERPTSAQVFDILNSAELVCLTRRILLPKNVIVECMVATHHNSRNASIWLGCGHTDRGQLSFLDLNTEGYTSEEVADSRILCLALVHLPVEKESWIVSGTQSGTLLVINTEDGKKRHTLEKMTDSVTCLYCNSFSKQSKQKNFLLVGTADGKLAIFEDKTVKLKGAAPLKILNIGNVSTPLMCLSESTNSTERNVMWGGCGTKIFSFSNDFTIQKLIETRTSQLFSYAAFSDSNIITVVVDTALYIAKQNSPVVEVWDKKTEKLCGLIDCVHFLREVMVKENKESKHKMSYSGRVKTLCLQKNTALWIGTGGGHILLLDLSTRRLIRVIYNFCNSVRVMMTAQLGSLKNVMLVLGYNRKNTEGTQKQKEIQSCLTVWDINLPHEVQNLEKHIEVRKELAEKMRRTSVE
As for B2, in data set [5], the “Km of peptide phosphorylation” value is reported as “a similar Km” and the “fold decrease of Vmax against LRRK2[G2019S]” value is ~2-fold lower Vmax. In addition, the “protein substrate phosphorylation” value in data set [3] is “did not phosphorylate MYPT”. In data set [4], the “protein substrate phosphorylation” value is “LRRK2 phosphorylated ezrin”.
